In paper PMC3623634 (Molecular Biology of the Cell, 2013):
Blank lines part the entries; values can stand above or below the binder they belong to.

Key:
[1] = molecular target: T1, GST-Alp7C (C-terminal half of Alp7, TACC domain, residues 219-474) (fission yeast, UniProt Q9URY2 219-474); assay: peptide or protein array
T1 sequence (looked up): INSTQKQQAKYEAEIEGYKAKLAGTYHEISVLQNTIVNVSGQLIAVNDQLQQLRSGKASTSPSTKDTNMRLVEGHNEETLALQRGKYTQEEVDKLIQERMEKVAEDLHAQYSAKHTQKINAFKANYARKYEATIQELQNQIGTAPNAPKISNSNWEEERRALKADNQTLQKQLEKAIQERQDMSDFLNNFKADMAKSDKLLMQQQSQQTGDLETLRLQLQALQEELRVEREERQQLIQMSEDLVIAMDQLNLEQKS

[2] = molecular target: T2, GST-Alp7 (full-length Alp7/TACC fused to GST) (fission yeast, UniProt Q9URY2 1-474); assay: peptide or protein array
T2 sequence (looked up): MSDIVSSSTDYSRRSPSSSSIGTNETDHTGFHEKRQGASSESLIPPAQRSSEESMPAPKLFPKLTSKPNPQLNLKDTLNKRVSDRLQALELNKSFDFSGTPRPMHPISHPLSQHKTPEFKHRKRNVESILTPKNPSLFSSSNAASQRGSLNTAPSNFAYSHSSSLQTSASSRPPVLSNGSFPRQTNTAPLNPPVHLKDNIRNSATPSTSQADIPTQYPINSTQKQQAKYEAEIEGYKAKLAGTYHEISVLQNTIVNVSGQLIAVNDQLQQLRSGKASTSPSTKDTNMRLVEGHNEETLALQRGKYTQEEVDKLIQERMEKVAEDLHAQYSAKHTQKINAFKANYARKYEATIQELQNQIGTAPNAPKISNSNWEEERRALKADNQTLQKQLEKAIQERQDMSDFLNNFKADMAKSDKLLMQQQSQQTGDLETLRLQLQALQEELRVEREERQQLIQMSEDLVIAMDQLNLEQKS

- binding result [1]: binds
- binding result [2]: binds
B1: Ndc80 loop peptide (411-424) with F420 replaced by isoleucine (peptide, UniProt Q10198 411-424, looked up)
peptide: DSLEKKVQKINSLA

- binding result [1]: binds
- binding result [2]: binds
B2: Ndc80 loop peptide (411-424) with F420 replaced by leucine (peptide, UniProt Q10198 411-424, looked up)
peptide: DSLEKKVQKLNSLA
